± gives the uncertainty stated by the source.
Experiment: self-splicing fitness, log relative to wild type (ln ratio); higher = more splicing; Tetrahymena group I intron in knt gene, E. coli kanamycin selection, DiMSum; sequences stand for … in CUCUCU…GGAGGGAAAAGUUAUCAGGCAUGCACCUGGUAGCUAGUCUUUAAACCAAUAGAUUGCAUCGGUUUAAAAGGCAAGACCGUCAAAUUGCGGGAAAGGGGUCAACAGCCGUUCAGUACCAAGUCUCAGGGGAAACUUUGAGAUGGCCUUGCAAAGGGUAUGGUAAUAAGCUGACGGACAUGGUCCUAACCACGCAGCCAAGUCCUAAGUCAACAGAUCUUCUGUUGAUAUGGAUGCAGUUCACAGACUAAAUGUCGGUCGGGGAAGAUGUAUUCUUCUCAUAAGAUAUAGUCGGACCUCUCCUUAAUGGGAGCUAGCGGAUGAAGUGAUGCAACACUGGAGCCGCUGGGAACUAAUUUGUAUGCGAAAGUAUAUUGAUUAGUUUUGGAGUACUCGUGGUCG
Method in brief: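 A randomised library covering all eight P1ex-region intron nucleotides was built with the intron in the knt kanamycin-resistance gene on pET-22b(+) and held in E. coli BL21(DE3). Cells were grown overnight at 37°C or 30°C on LB agar, with or without 25 μg/mL kanamycin, plus 100 μg/mL carbenicillin, 50 μM IPTG and 0.2% rhamnose, and pooled colonies were amplicon-sequenced on an Illumina HiSeq 2500. DiMSum fitness is the error-weighted combination of wild-type-normalised replicate fold changes, kanamycin versus none.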

Sequence	self-splicing fitness (ln) (30 °C)	self-splicing fitness (ln) (37 °C)
CCUAAGCAAUAUUACGAAAG	-1.75 ± 0.18	0.000192 ± 0.18
CCUAAGCAAUAUUACGAAUU	-3.89 ± 0.22	-1.79 ± 0.21
CCUAAGCAAUAUUACGACGA	-2.67 ± 0.24	-2.1 ± 0.38
CCUAAGCAAUAUUACGACGU	-3.61 ± 0.29	-2.17 ± 0.22
CCUAAGCAAUAUUACGAGGA	-1.99 ± 0.15	-1.85 ± 0.13
CCUAAGCAAUAUUACGAGUU	-4.08 ± 0.2	-2.22 ± 0.14
CCUAAGCAAUAUUACGAUGA	-3.09 ± 0.21	-1.84 ± 0.18
CCUAAGCAAUAUUACGCAUU	-3.56 ± 0.29	-2.2 ± 0.27
CCUAAGCAAUAUUACGCCAG	-2.8 ± 0.26	-2.13 ± 0.29
CCUAAGCAAUAUUACGCCAU	-4.47 ± 0.46	-2.48 ± 0.34
CCUAAGCAAUAUUACGCCCG	-2.22 ± 0.22	-0.795 ± 0.26
CCUAAGCAAUAUUACGCCGG	-3.61 ± 0.24	-2.57 ± 0.21
CCUAAGCAAUAUUACGCCUA	-2.7 ± 0.21	-2.24 ± 0.28
CCUAAGCAAUAUUACGCGUC	-3.25 ± 0.16	-1.95 ± 0.17
CCUAAGCAAUAUUACGCUGU	-3.8 ± 0.33	-2.61 ± 0.33
CCUAAGCAAUAUUACGGCAG	-2.09 ± 0.084	-1.21 ± 0.098
CCUAAGCAAUAUUACGGCCA	-2.55 ± 0.22	-2.58 ± 0.26
CCUAAGCAAUAUUACGGCGU	-4.15 ± 0.3	-2.49 ± 0.24
CCUAAGCAAUAUUACGGCUA	-3.69 ± 0.47	-3.14 ± 0.25
CCUAAGCAAUAUUACGGCUU	-3.04 ± 0.15	-3.04 ± 0.21
CCUAAGCAAUAUUACGGGAC	-3.86 ± 0.23	-2.7 ± 0.22
CCUAAGCAAUAUUACGGGUA	-2.36 ± 0.27	-1.67 ± 0.25
CCUAAGCAAUAUUACGGUAG	-1.27 ± 0.078	-0.941 ± 0.097
CCUAAGCAAUAUUACGUCCA	-3.28 ± 0.25	-2.1 ± 0.41

Sequence	self-splicing fitness (ln) (30 °C)	self-splicing fitness (ln) (37 °C)
CCUAAGCAAUAUUACGUGGA	-2.73 ± 0.15	-2.55 ± 0.28
CCUAAGCAAUAUUACGUGGC	-3.59 ± 0.18	-2.85 ± 0.19
CCUAAGCAAUAUUACGUUGA	-3.74 ± 0.25	-1.94 ± 0.17
CCUCAGCAAUAUUACGAAUC	-3.45 ± 0.28	-2.82 ± 0.31
CCUCAGCAAUAUUACGACAU	-3.84 ± 0.024	-2.84 ± 0.039
CCUCAGCAAUAUUACGACCC	-2.75 ± 0.38	-2.41 ± 0.49
CCUCAGCAAUAUUACGAGAA	-3.3 ± 0.41	-2.28 ± 0.29
CCUCAGCAAUAUUACGAGGC	–	-2.19 ± 0.31
CCUCAGCAAUAUUACGAGUG	-2.34 ± 0.14	-0.953 ± 0.14
CCUCAGCAAUAUUACGAUGC	-4.19 ± 0.24	-2.15 ± 0.3
CCUCAGCAAUAUUACGCAAG	-3.31 ± 0.17	-1.71 ± 0.14
CCUCAGCAAUAUUACGCACU	-3.26 ± 0.18	-1.63 ± 0.2
CCUCAGCAAUAUUACGCCCA	-3.18 ± 0.22	-3.5 ± 0.39
CCUCAGCAAUAUUACGCUGA	-2.75 ± 0.35	-3.12 ± 0.47
CCUCAGCAAUAUUACGCUUG	-4.31 ± 0.37	-2.52 ± 0.23
CCUCAGCAAUAUUACGGAAG	-1.05 ± 0.11	-0.549 ± 0.14
CCUCAGCAAUAUUACGGAAU	-3.72 ± 0.3	-2.69 ± 0.25
CCUCAGCAAUAUUACGGCAU	-3.12 ± 0.13	-2.42 ± 0.18
CCUCAGCAAUAUUACGGCUA	-3.62 ± 0.4	-1.72 ± 0.25
CCUCAGCAAUAUUACGGCUC	-2.77 ± 0.16	-2.46 ± 0.29
CCUCAGCAAUAUUACGGGUA	-3.23 ± 0.18	-1.9 ± 0.14
CCUCAGCAAUAUUACGGUUU	-3.37 ± 0.13	-2.73 ± 0.16
CCUCAGCAAUAUUACGUAAU	-4.03 ± 0.21	-2.74 ± 0.22

Source: the supplement of paper PMC7877785
